From patent publication US5785967 come the findings set out here.

The target of experiment [1] is LIF receptors on the surface of DA-1 cells. The experiment is described as follows: 125I-LIF binding to intact DA-1 cells, phthalate oil separation.
Experiment [2] addresses Human LIF-R encoded by cDNA clone 65 (pHLIFR-65), expressed on transfected COS-7 cells (human). Description: 125I-LIF binding to COS cells transfected with LIF-R cDNA clone 65, Scatchard analysis.
Experiment [3] addresses Recombinant human leukemia inhibitory factor (LIF) (human) (UniProt P15018). The experiment is described as follows: Scatchard analysis, LIF-R/Fc on Protein G Sepharose beads with serial dilutions of 125I-LIF.

For the substance “Recombinant human leukemia inhibitory factor (LIF) (from UniProt P15018) (ligand)”, the values for the Ka in experiment [1] and in experiment [2] were 7.4e+08 M⁻¹ and > 1e+09 M⁻¹, respectively.

As to “Soluble human LIF-R/Fc homodimer (Fc fusion)”, the Ka in experiment [3] amounted to 9e+08 M⁻¹.
